Measured values as given in FireProtDB (doi:10.1016/j.jmb.2010.11.028).

B1: Alpha-tocopherol transfer protein, P49638 (parent)
chain: MAEARSQPSAGPQLNALPDHSPLLQPGLAALRRRAREAGVPLAPLPLTDSFLLRFLRARDFDLDLAWRLLKNYYKWRAECPEISADLHPRSIIGLLKAGYHGVLRSRDPTGSKVLIYRIAHWDPKVFTAYDVFRVSLITSELIVQEVETQRNGIKAIFDLEGWQFSHAFQITPSVAKKIAAVLTDSFPLKVRGIHLINEPVIFHAVFSMIKPFLTEKIKERIHMHGNNYKQSLLQHFPDILPLEYGGEEFSMEDICQEWTNFIMKSEDYLSSISESIQ

Variants of: B1
Details: Homo sapiens; pH 7.4; Thermal; Fluorescence; Tris 50mM; structure 1R5L; whole UniProt chain shown
MAEARSQPSAGPQLNALPDHSPLLQPGLAALRRRAREAGVPLAPLPLTDSFLLRFLRARDFDLDLAWRLLKNYYKWRAECPEISADLHPRSIIGLLKAGYHGVLRSRDPTGSKVLIYRIAHWDPKVFTAYDVFRVSLITSELIVQEVETQRNGIKAIFDLEGWQFSHAFQITPSVAKKIAAVLTDSFPLKVRGIHLINEPVIFHAVFSMIKPFLTEKIKERIHMHGNNYKQSLLQHFPDILPLEYGGEEFSMEDICQEWTNFIDKSEDYLSSISESIQ [M264D] gave a Tm of 68.8 °C.
MAEARSQPSAGPQLNALPDHSPLLQPGLAALRRRAREAGVPLAPLPLTDSFLLRFLRARDFDLDLAWRLLKNYYKWRAECPEISADLHPRSIIGLLKAGYHGVLRSRDPTGSKVLIYRIAHWDPKVFTAYDVFRVSLITSELIVQEVETQRNGIKAIFDLEGWQDSHAFQITPSVAKKIAAVLTDSFPLKVRGIHLINEPVIFHAVFSMIKPFLTEKIKERIHMHGNNYKQSLLQHFPDILPLEYGGEEFSMEDICQEWTNFIMKSEDYLSSISESIQ [F165D] showed a Tm of 82.4 °C.
MAEARSQPSAGPQLNALPDHSPLLQPGLAALRRRAREAGVPLAPLPLTDSFLLRFLRARDFDLDLAWRLLKNYYKWRAECPEISADLHPRSIIGLLKAGYHGVLRSRDPTGSKVLIYRIAHWDPKVFTAYDVFRVSLITSELIVQEVETQRNGIKAIFDLEGWQASHAFQITPSVAKKIAAVLTDSFPLKVRGIHLINEPVIFHAVFSMIKPFLTEKIKERIHMHGNNYKQSLLQHFPDILPLEYGGEEFSMEDICQEWTNFIMKSEDYLSSISESIQ [F165A] showed a Tm of 82.4 °C.
Variant MAEARSQPSAGPQLNALPDHSPLLQPGLAALRRRAREAGVPLAPLPLTDSFLLRFLRARDFDLDLAWRLLKNYYKWRAECPEISADLHPRSIIGLLKAGYHGVLRSRDPTGSKVLIYRIAHWDPKVFTAYDVFRVSLITSELIVQEVETQRNGIKAIFDLEGWQFSHAFQITPSVAKKIAAVLTDSFPLKVRGIHLINEPVIFHAVFSAIKPFLTEKIKERIHMHGNNYKQSLLQHFPDILPLEYGGEEFSMEDICQEWTNFIMKSEDYLSSISESIQ [M209A] has a Tm of 82.8 °C.
MAEARSQPSAGPQLNALPDHSPLLQPGLAALRRRAREAGVPLAPLPLTDSFLLRFLRARDFDLDLAWRLLKNYYKWRAECPEISADLHPRSIIGLLKAGYHGVLRSRDPTGSKVLIYRIAHWDPKVFTAYDVFRVSLITSELIVQEVETQRNGIKAIFDLEGWQFSHAFQITPSVAKKIAAVLTDSFPLKVRGIHLINEPVIFHAVFSDIKPFLTEKIKERIHMHGNNYKQSLLQHFPDILPLEYGGEEFSMEDICQEWTNFIMKSEDYLSSISESIQ [M209D] showed a Tm of 79.5 °C.
MAEARSQPSAGPQLNALPDHSPLLQPGLAALRRRAREAGVPLAPLPLTDSFLLRFLRARDFDLDLAWRLLKNYYKWRAECPEISADLHPRSIIGLLKAGYHGVLRSRDPTGSKVLIYRIAHWDPKVFTAYDVFRVSLITSELIVQEVETQRNGIKAIFDLEGWQFSHAAQITPSVAKKIAAVLTDSFPLKVRGIHLINEPVIFHAVFSMIKPFLTEKIKERIHMHGNNYKQSLLQHFPDILPLEYGGEEFSMEDICQEWTNFIMKSEDYLSSISESIQ [F169A] gave a Tm of 75.3 °C.
Work on MAEARSQPSAGPQLNALPDHSPLLQPGLAALRRRAREAGVPLAPLPLTDSFLLRFLRARDFDLDLAWRLLKNYYKWRAECPEISADLHPRSIIGLLKAGYHGVLRSRDPTGSKVLIYRIAHWDPKVFTAYDVFRVSLITSELIVQEVETQRNGIKAIFDLEGWQFSHAFQITPSVAKKIAAVLTDSFPLKVRGIHLINEPVAFHAVFSMIKPFLTEKIKERIHMHGNNYKQSLLQHFPDILPLEYGGEEFSMEDICQEWTNFIMKSEDYLSSISESIQ [I202A] yielded a Tm of 74.9 °C.
Work on MAEARSQPSAGPQLNALPDHSPLLQPGLAALRRRAREAGVPLAPLPLTDSFLLRFLRARDFDLDLAWRLLKNYYKWRAECPEISADLHPRSIIGLLKAGYHGVLRSRDPTGSKVLIYRIAHWDPKVFTAYDVFRVSLITSELIVQEVETQRNGIKAIFDLEGWQFSHAFQITPSVAKKIAAVLTDSFPLKVRGIHLINEPVDFHAVFSMIKPFLTEKIKERIHMHGNNYKQSLLQHFPDILPLEYGGEEFSMEDICQEWTNFIMKSEDYLSSISESIQ [I202D] yielded a Tm of 73.6 °C.
Variant MAEARSQPSAGPQLNALPDHSPLLQPGLAALRRRAREAGVPLAPLPLTDSFLLRFLRARDFDLDLAWRLLKNYYKWRAECPEISADLHPRSIIGLLKAGYHGVLRSRDPTGSKVLIYRIAHWDPKVFTAYDVFRVSLITSELIVQEVETQRNGIKAIFDLEGWQFSHAFQITPSVAKKIAAVLTDSFPLKVRGIHLINEPVIFHAAFSMIKPFLTEKIKERIHMHGNNYKQSLLQHFPDILPLEYGGEEFSMEDICQEWTNFIMKSEDYLSSISESIQ [V206A] has a Tm of 78.2 °C.
With MAEARSQPSAGPQLNALPDHSPLLQPGLAALRRRAREAGVPLAPLPLTDSFLLRFLRARDFDLDLAWRLLKNYYKWRAECPEISADLHPRSIIGLLKAGYHGVLRSRDPTGSKVLIYRIAHWDPKVFTAYDVFRVSLITSELIVQEVETQRNGIKAIFDLEGWQFSHAFQITPSVAKKIAAVLTDSFPLKVRGIHLINEPVIFHADFSMIKPFLTEKIKERIHMHGNNYKQSLLQHFPDILPLEYGGEEFSMEDICQEWTNFIMKSEDYLSSISESIQ [V206D] the Tm was 76 °C.
